Test results reported in patent US20140206609A1 (Sanofi, published 2014).
*1 amine or outer side, *2 acyl side, *3 side chain or, on linkers, in order; H or OH if unused. Where no end group is shown, it is not given here. Side-chain parts run from the residue outwards. [ ]: non-standard residue; d: D form. The star is where a group is joined. γGlu = O=C(O)[C@H](CCC(=O)[*:2])N[*:1]; Stearoyl = CCCCCCCCCCCCCCCCCC(=O)*; Aib = CC(C)(N)C(=O)O; βAla = NCCC(=O)O

B1: SEQ ID NO: 15 (peptide)
peptide: Y[Aib]EGTFTSDLSIQK([γGlu-Stearoyl])EKRAA[Aib]EFIEWLKNTGPSSGAPPPS-NH2
modifications: N-terminus assumed
SMILES: CCCCCCCCCCCCCCCCCC(=O)N[C@@H](CCC(=O)NCCCC[C@H](NC(=O)[C@H](CCC(N)=O)NC(=O)[C@@H](NC(=O)[C@H](CO)NC(=O)[C@H](CC(C)C)NC(=O)[C@H](CC(=O)O)NC(=O)[C@H](CO)NC(=O)[C@@H](NC(=O)[C@H](Cc1ccccc1)NC(=O)[C@@H](NC(=O)CNC(=O)[C@H](CCC(=O)O)NC(=O)C(C)(C)NC(=O)[C@@H](N)Cc1ccc(O)cc1)[C@@H](C)O)[C@@H](C)O)[C@@H](C)CC)C(=O)N[C@@H](CCC(=O)O)C(=O)N[C@@H](CCCCN)C(=O)N[C@@H](CCCNC(=N)N)C(=O)N[C@@H](C)C(=O)N[C@@H](C)C(=O)NC(C)(C)C(=O)N[C@@H](CCC(=O)O)C(=O)N[C@@H](Cc1ccccc1)C(=O)N[C@H](C(=O)N[C@@H](CCC(=O)O)C(=O)N[C@@H](Cc1c[nH]c2ccccc12)C(=O)N[C@@H](CC(C)C)C(=O)N[C@@H](CCCCN)C(=O)N[C@@H](CC(N)=O)C(=O)N[C@H](C(=O)NCC(=O)N1CCC[C@H]1C(=O)N[C@@H](CO)C(=O)N[C@@H](CO)C(=O)NCC(=O)N[C@@H](C)C(=O)N1CCC[C@H]1C(=O)N1CCC[C@H]1C(=O)N1CCC[C@H]1C(=O)N[C@@H](CO)C(N)=O)[C@@H](C)O)[C@@H](C)CC)C(=O)O
B2: SEQ ID NO: 18 (peptide)
peptide: Y[Aib]EGTFTSDLSIQK([βAla-βAla-Stearoyl])EKRAA[Aib]EFIEWLKNTGPSSGAPPPS-NH2
modifications: N-terminus assumed
SMILES: CCCCCCCCCCCCCCCCCC(=O)NCCC(=O)NCCC(=O)NCCCC[C@H](NC(=O)[C@H](CCC(N)=O)NC(=O)[C@@H](NC(=O)[C@H](CO)NC(=O)[C@H](CC(C)C)NC(=O)[C@H](CC(=O)O)NC(=O)[C@H](CO)NC(=O)[C@@H](NC(=O)[C@H](Cc1ccccc1)NC(=O)[C@@H](NC(=O)CNC(=O)[C@H](CCC(=O)O)NC(=O)C(C)(C)NC(=O)[C@@H](N)Cc1ccc(O)cc1)[C@@H](C)O)[C@@H](C)O)[C@@H](C)CC)C(=O)N[C@@H](CCC(=O)O)C(=O)N[C@@H](CCCCN)C(=O)N[C@@H](CCCNC(=N)N)C(=O)N[C@@H](C)C(=O)N[C@@H](C)C(=O)NC(C)(C)C(=O)N[C@@H](CCC(=O)O)C(=O)N[C@@H](Cc1ccccc1)C(=O)N[C@H](C(=O)N[C@@H](CCC(=O)O)C(=O)N[C@@H](Cc1c[nH]c2ccccc12)C(=O)N[C@@H](CC(C)C)C(=O)N[C@@H](CCCCN)C(=O)N[C@@H](CC(N)=O)C(=O)N[C@H](C(=O)NCC(=O)N1CCC[C@H]1C(=O)N[C@@H](CO)C(=O)N[C@@H](CO)C(=O)NCC(=O)N[C@@H](C)C(=O)N1CCC[C@H]1C(=O)N1CCC[C@H]1C(=O)N1CCC[C@H]1C(=O)N[C@@H](CO)C(N)=O)[C@@H](C)O)[C@@H](C)CC

What was measured:
Assay in all cases: cell-based or functional assay
human GIP receptor = target: T1, human GIP receptor (human, UniProt P48546 22-466)
T1 sequence (looked up): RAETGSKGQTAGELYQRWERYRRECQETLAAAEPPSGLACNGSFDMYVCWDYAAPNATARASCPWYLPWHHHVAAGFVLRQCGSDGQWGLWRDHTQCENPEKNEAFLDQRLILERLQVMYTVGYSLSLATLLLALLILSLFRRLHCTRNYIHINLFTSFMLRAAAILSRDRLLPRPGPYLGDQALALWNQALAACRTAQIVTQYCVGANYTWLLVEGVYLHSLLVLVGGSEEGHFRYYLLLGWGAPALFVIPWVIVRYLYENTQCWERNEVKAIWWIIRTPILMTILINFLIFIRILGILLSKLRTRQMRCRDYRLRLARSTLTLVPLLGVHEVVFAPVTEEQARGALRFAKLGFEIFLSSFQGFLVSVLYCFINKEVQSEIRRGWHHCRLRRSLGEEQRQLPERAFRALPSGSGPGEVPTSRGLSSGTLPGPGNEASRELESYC

human glucagon receptor = human glucagon receptor (human, UniProt P47871 26-477)
human GLP-1 receptor = human GLP-1 receptor (human, UniProt P43220 24-463)

Sequence of human glucagon receptor (P47871 26-477): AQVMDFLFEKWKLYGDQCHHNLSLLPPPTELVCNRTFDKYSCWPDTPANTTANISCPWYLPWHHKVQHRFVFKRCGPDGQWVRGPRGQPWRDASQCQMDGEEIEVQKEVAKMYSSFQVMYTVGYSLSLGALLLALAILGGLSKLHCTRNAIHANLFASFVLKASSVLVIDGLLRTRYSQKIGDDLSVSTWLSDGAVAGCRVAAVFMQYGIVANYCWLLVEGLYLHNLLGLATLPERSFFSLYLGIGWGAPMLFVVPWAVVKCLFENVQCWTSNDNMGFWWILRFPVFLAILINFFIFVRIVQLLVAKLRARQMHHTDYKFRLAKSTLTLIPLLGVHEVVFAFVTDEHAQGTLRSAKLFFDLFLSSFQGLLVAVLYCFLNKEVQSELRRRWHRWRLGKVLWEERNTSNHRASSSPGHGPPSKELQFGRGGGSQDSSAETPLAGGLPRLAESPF

Row | Binder | EC50 hGIP R [pM] (human GIP receptor) | EC50 hGLUC R [pM] (human glucagon receptor) | EC50 hGLP-1 R [pM] (human GLP-1 receptor)
1 | B1 | 8.2 pM | 5810 pM | 
2 | B2 |  | 4950 pM | 7.6 pM
